Test results from PMC7138820, “Acetylation of histone H3K27 signals the transcriptional elongation for estrogen receptor alpha” (Communications Biology, 2020).

Target: the molecule itself
Test: crystal structure; AFF4 900–1163, sitting-drop vapor diffusion at 16 °C, 2.2 M NaH2PO4, 0.4 M K2HPO4, 0.1 M MES pH 6.6; SAD phasing; 2.2 Å

B1: AFF4 fragment encompassing residues 900–1163 (crystallised) (domain or fragment, human, UniProt Q9UHB7 900-1163, looked up)
chain: KPRRTKLVFDDRNYSADHYLQEAKKLKHNADALSDRFEKAVYYLDAVVSFIECGNALEKNAQESKSPFPMYSETVDLIKYTMKLKNYLAPDATAADKRLTVLCLRCESLLYLRLFKLKKENALKYSKTLTEHLKNSYNNSQAPSPGLGSKAVGMPSPVSPKLSPGNSGNYSSGASSASASGSSVTIPQKIHQMAASYVQVTSNFLYATEIWDQAEQLSKEQKEFFAELDKVMGPLIFNASIMTDLVRYTRQGLHWLRQDAKLIS
notes: A selenomethionyl derivative was made for SAD phasing; also called AFF4 C-terminal dimerization domain; AFF4 homodimerization domain; source: E. coli BL21(DE3) codon-plus RIL, purified (Ni-chelating resin, HiTrap SP, Superdex 75); not shown: His, N-terminal, cleaved; SUMO, N-terminal, cleaved
  binding result: binds
